In patent publication US10697970B2, “S100A9 levels for predicting lenalidomide and erythropoietin responsiveness” (H. LEE MOFFITT CANCER CENTER AND RESEARCH INSTITUTE, INC., priority 2015, dated 2020):

Experiments:
MDS BM-MNC [1] = test: qPCR of pyroptosis-related genes in lower-risk MDS BM-MNC treated with CD33-IgG1; assay type: cell-based, human; settings: lower-risk MDS BM-MNC (n=5), 24 hours, versus autologous BM plasma alone
Experimental: RNA was isolated from BM-MNC using the RNeasy Mini Kit (Qiagen). cDNA was produced using the iScript cDNA Synthesis Kit (Bio-Rad). Sequences for primers can be found in Table 1. GAPDH mRNA was used for transcript normalization. cDNA was amplified using the iQ SYBR Green Supermix and the CFX96 Real-Time PCR Detection System (Bio-Rad). PCR conditions were as follows: 10 minutes at 95° C., followed by 40 cycles of amplification (15 seconds at 95° C. and 1 minute at 60° C.). Relative gene expression was calculated using the […] method.

MDS BM-MNC [2] = test: Pyroptosis flow cytometry panel in MDS BM-MNC incubated with autologous BM plasma; assay type: cell-based, human
Experimental: For human samples, treated and untreated BM-MNC were incubated overnight in IMDM, supplemented with 10% autologous BM plasma. Subsequently, cells were harvested, washed twice in 1×PBS, and stained with LIVE/DEAD Violet fluorescent reactive dye according to the manufacturer's protocol (Life Technologies). Cells were resuspended in 1×PBS with 2% BSA, and incubated at room temperature for 15 minutes to block non-specific binding. After washing, cells were stained with 30×FAM-FLICA® Caspase-1 and Caspase-3/7 solution at a ratio of 1:30 for 2 hours at 37° C. Cells were washed and stained for cell surface receptors using CD38:PE-CF594, CD33:BV711, CD34:APC (BD Biosciences), and CD71:PE-Cyanine7 (eBioscience). All antibodies were diluted 1:20, and cells were stained for 30 minutes at 4° C. Cells were washed, resuspended in 1× binding buffer, and stained with Annexin-V:Cy5.5 at a dilution of 1:20 for 15 minutes at room temperature (BD Biosciences). 1× binding buffer was added to a final volume of 400 μL. Sample acquisitions were carried out using a BD LSR II flow cytometer and FACSDiva software (BD Biosciences). Calibration of the flow cytometer was carried out prior to each experiment using Rainbow Mid-Range Fluorescent Particles (BD Biosciences). To establish fluorescence compensation settings, ArC Amine Reactive Compensation Beads were used for LIVE/DEAD Violet staining (Life Technologies), and BD CompBead Plus Anti-Mouse Ig κ/Negative Control (BSA) Compensation Plus Particles were used for surface receptor conjugates (BD Biosciences). Data were analyzed using FlowJo 9.7.5 software (FlowJo, LLC, Ashland, Oreg.).

B1: CD33-IgG1: S100A9 high-affinity chimeric (CD33-IgG1) decoy receptor (protein)
chain: DPNFWLQVQESVTVQEGLCVLVPCTFFHPIPYYDKNSPVHGYWFREGAIISRDSPVATNKLDQEVQEETQGRFRLLGDPSRNNCSLSIVDARRRDNGSYFFRMERGSTKYSYKSPQLSVHVTDLTHRPKILIPGTLEPGHSKNLTCSVSWACEQGTPPIFSWLSAAPTSLGPRTTHSSVLIITPRPQDHGTNLTCQVKFAGAGVTTERTIQLNVTYVPQNPTTGIFPGDGSGKQETRAGVVH
modifications: left off: a dimerising Fc or GST
- CASP3 expression (MDS BM-MNC [1]): markedly reduced
- expression of CASP1, IL-1β, IL-18, and NLRP3 (MDS BM-MNC [1]): reduced
- reduction of fraction of pyroptotic cells, maximum lineage-specific change, CD33+ cells (MDS BM-MNC [2]; CD33+ immature myeloids, 0.5 μg CD33-IgG1 or 0.1 μM IRAK4 inhibitor, 24 hours): 68%
- reduction of fraction of pyroptotic cells, maximum lineage-specific change, progenitor cells (MDS BM-MNC [2]; CD34+CD38+ progenitor cells, 0.5 μg CD33-IgG1 or 0.1 μM IRAK4 inhibitor, 24 hours): 23%
- reduction of fraction of pyroptotic cells, maximum lineage-specific change, stem cells (MDS BM-MNC [2]; CD34+CD38− stem cells, 0.5 μg CD33-IgG1 or 0.1 μM IRAK4 inhibitor, 24 hours): 44%
- reduction of fraction of pyroptotic cells, maximum lineage-specific change, CD71+ cells (MDS BM-MNC [2]; CD71+ erythroids, 0.5 μg CD33-IgG1 or 0.1 μM IRAK4 inhibitor, 24 hours): 64%
- fraction of pyroptotic cells across all lineages studied (MDS BM-MNC [2]; MDS BM-MNC (n=4), autologous BM plasma, 0.5 μg CD33-IgG1 or 0.1 μM IRAK4 inhibitor): marked reduction
- MDSC fraction (MDS BM-MNC [2]; short-term treatment with the chimeric receptor): significantly reduced
